Tests used:
[1] = biological target: T1, TNFβ (UniProt P01374); experiment: cell-based or functional assay
T1 sequence (looked up): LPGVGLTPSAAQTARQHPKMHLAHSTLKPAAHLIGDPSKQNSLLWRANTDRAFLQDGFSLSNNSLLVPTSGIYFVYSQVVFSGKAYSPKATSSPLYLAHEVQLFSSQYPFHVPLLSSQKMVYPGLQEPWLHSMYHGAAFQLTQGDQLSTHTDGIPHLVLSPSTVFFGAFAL

[2] = biological target: TNFα (UniProt P01375); experiment: cell-based or functional assay
Sequence of TNFα (P01375 77-233 limits assumed): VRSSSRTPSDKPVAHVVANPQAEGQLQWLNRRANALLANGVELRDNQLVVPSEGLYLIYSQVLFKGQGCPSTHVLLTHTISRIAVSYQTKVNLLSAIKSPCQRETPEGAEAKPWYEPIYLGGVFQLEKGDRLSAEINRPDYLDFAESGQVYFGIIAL

Sequence of concatameric fusion dimeric protein [TNFR1-TNFR1/Fc]2 (Fc fusion) (chain): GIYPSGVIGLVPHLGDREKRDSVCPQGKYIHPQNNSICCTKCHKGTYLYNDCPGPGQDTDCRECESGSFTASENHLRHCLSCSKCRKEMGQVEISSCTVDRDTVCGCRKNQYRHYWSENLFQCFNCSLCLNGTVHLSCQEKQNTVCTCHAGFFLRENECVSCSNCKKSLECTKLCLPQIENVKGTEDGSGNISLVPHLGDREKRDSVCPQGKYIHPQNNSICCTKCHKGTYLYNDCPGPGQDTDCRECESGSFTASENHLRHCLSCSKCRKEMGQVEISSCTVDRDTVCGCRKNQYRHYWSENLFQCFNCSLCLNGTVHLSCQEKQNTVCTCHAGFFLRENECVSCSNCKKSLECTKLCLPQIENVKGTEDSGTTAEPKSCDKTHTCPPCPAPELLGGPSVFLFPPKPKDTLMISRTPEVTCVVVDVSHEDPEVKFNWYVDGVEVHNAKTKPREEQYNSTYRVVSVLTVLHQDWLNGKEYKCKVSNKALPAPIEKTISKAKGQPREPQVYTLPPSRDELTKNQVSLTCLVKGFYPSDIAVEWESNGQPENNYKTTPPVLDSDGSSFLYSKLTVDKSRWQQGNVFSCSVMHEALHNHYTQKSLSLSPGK
Sequence of simple fusion dimeric protein [TNFR1/Fc]2 (Fc fusion) (chain): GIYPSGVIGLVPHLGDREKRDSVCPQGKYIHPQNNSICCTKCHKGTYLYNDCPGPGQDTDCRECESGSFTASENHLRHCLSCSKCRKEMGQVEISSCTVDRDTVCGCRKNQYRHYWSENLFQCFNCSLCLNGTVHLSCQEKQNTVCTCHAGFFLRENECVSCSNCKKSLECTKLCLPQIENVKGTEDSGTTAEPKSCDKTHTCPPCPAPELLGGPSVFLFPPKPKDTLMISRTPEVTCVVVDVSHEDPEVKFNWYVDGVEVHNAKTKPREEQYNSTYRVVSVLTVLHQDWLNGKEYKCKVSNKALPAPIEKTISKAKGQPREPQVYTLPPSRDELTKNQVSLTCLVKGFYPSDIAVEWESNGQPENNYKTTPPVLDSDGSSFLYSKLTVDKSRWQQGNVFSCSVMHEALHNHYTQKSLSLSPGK
Sequence of concatameric fusion dimeric protein [TNFR2-TNFR2/Fc]2 (Fc fusion) (chain): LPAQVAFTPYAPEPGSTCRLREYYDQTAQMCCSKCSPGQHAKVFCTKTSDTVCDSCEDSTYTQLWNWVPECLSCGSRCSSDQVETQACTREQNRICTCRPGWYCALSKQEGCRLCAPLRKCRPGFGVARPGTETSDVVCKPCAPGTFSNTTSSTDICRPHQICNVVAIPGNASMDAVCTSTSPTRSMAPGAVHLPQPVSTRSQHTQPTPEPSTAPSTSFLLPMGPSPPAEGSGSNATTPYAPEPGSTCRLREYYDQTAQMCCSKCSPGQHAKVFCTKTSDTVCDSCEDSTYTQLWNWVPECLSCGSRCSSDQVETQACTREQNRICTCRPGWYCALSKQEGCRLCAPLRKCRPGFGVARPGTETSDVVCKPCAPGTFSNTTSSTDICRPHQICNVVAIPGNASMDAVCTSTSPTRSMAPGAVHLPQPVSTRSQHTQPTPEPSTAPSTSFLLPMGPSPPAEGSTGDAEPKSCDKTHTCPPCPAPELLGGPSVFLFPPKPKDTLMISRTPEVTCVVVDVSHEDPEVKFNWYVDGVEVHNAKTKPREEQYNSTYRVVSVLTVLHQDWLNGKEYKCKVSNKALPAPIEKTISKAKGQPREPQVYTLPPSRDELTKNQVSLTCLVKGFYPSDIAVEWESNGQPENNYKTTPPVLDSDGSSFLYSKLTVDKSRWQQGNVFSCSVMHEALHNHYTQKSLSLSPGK
Sequence of simple fusion dimeric protein [TNFR2/Fc]2 (Fc fusion) (chain): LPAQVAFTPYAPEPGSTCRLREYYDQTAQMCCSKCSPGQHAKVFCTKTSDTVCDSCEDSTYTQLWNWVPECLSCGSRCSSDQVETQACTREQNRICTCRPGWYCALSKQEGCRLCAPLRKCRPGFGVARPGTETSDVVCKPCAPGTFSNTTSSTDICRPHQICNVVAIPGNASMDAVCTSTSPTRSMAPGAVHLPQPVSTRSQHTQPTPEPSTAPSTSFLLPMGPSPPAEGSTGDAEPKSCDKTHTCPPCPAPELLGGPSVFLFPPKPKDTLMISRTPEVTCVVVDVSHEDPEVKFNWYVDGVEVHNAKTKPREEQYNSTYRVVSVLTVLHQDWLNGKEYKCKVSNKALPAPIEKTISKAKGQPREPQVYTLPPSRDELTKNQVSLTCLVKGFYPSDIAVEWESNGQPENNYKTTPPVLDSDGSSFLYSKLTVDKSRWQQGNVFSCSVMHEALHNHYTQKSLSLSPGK

| Substance | IC50 of cytotoxicity inhibition, L929 cells, TNFβ treated [1] [µg/mL] | IC50 of cytotoxicity inhibition, L929 cells, TNFα treated [2] [µg/mL] |
| --- | --- | --- |
| concatameric fusion dimeric protein [TNFR1-TNFR1/Fc]2 (Fc fusion) | 20 | 9 |
| simple fusion dimeric protein [TNFR2/Fc]2 (Fc fusion) | 469 | 189 |
| concatameric fusion dimeric protein [TNFR2-TNFR2/Fc]2 (Fc fusion) | 15 | 15 |
| simple fusion dimeric protein [TNFR1/Fc]2 (Fc fusion) | 129 | 63 |

From patent publication US20030195338A1
